From article PMC12148503, “Molecular Basis of Interchain Disulfide Bond Formation in BMP-9 and BMP-10” (Journal of molecular biology, 2025) come the findings set out here.

B1: Pro-(X)-BMP-9 [human] / itself (parent)
chain: KPLQSWGRGSAGGNAHSPLGVPGGGLPEHTFNLKMFLENVKVDFLRSLNLSGVPSQDKTRVEPPQYMIDLYNRYTSDKSTTPASNIVRSFSMEDAISITATEDFPFQKHILLFNISIPRHEQITRAELRLYVSCQNHVDPSHDLKGSVVIYDVLDGTDAWDSATETKTFLVSQDIQDEGWETLEVSSAVKRWVRSDSTKSKNKLEVTVESHRKGCDTLDISVPPGSRNLPFFVVFSNDHSSGTKETRLELREMISHEQESVLKKLSKDGSTEAGESSHEEDTDGHVAAGSTLAIEGRSSGAGSHCQKTSLRVNFEDIGWDSWIIAPKEYEAYECKGGCFFPLADDVTPTKHAIVQTLVHLKFPTKVGKACCVPTKLSPISVLYKDDMGVPTLKYHYEGMSVAECGCR

In the test the parent is B1. Nature of the test: SDS-PAGE densitometry. The settings on record: with itself; IMAC column purified Pro-BMP-9.
With chain 1 K335R G367S, the screen value is 3.24.

With chain 1 G367S, the screen value worked out at 1.29.

Turning to chain 1 K335R, the screen value amounted to 0.7.
